According to the nanobody polyreactivity screen of Harvey et al. (2022):

Assay: yeast display, Sf9 membrane polyspecificity reagent, FACS + sequencing; frameworks hold sequencing errors
Procedure, shortened: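 Nanobodies came from a synthetic yeast display library in Saccharomyces cerevisiae BJ5465, induced with galactose for 36–48 hours and stained for 1 hour at 4 °C with 10% biotinylated, detergent-solubilized Sf9 membrane reagent. Cells were enriched on streptavidin microbeads and then FACS-sorted, with low and high (top ~1%) gates set on anti-HA fluorescence for expression and streptavidin fluorescence for reagent binding. Each polyreactivity label reflects the gate a clone came from. Genes were amplified by colony PCR, sequenced by MiSeq 2 × 250 and filtered by CDR length.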

With “QVQLVESGGGLVQAGGSLRLSCAASGITFRTYAMGWYRQALGKERELVAVITWSGGRTYYADSVKGRFTISRDNANNTVYLQMHSLKPEDTAVYYCNALAYYIRYYYWGQGTQVTVSS” as the sequence, how does the “polyreactivity (PSR sort gate)” value read?
Its value is “high polyreactivity”.

With “QVQLVESGGGLVQAGGSLRLSCAASGITFRTYAMGWYRQAPGKERELVAAITRGDSTYYADSVKGRFTISRDNAKNSVYLQMNSLKPEETAVYYCAKESYIVNSRYYTGKMYYWGQGTQVTVSS” as the sequence, how does the “polyreactivity (PSR sort gate)” value read?
The value was “low polyreactivity”.

Which “polyreactivity (PSR sort gate)” value does the source give for “QVQLVESGGGLVQAGGSLRLSCAASGITFRVYAMGWYRPAPGKERELVAAITSSGGSTYYADSVKGRFTISRDYAKNTVYLQMNSLKPEDTAVYYCNKVTYGYAYWRYDGYDYWGQGTQVTVSS” here?
The value was “low polyreactivity”.

Which “polyreactivity (PSR sort gate)” value does the source give for “QVQLVESGGGLVQAGGSLRLSCAASGITFRVYVMGWYRQAPGKERELVAAITSGTSTYYADSVKGRITISRDNAKNTVYLQMNRLKPEDTAVYYCAALIFYGDYIEYDYWGQGTQVTVSS” here?
Its value is “low polyreactivity”.

Which “polyreactivity (PSR sort gate)” value does the source give for “QVQLVESGGGLVQAGGSLRLSCAASGITFRWYAMGWYRPAPGKEWELVAAMNSRGTSTYYADSVKGRFTISRDNAKNTVYLQMNSLKPEDTSVYYCAATYLYIHGGFRPQYDYWGQGTQVTVSS” here?
Its value is “high polyreactivity”.

For “QVQLVESGGGLVQAGGSLRLSCAASGITFRYYAMGWYRQAPGKERELVARITTDGSTHYADSVKGRFTISRDNAKNTVYLQMNSLKPEDTAVYYCNARHRNLAEYDYWGQGTQVTVSS”, which “polyreactivity (PSR sort gate)” value is on record?
Its value is “low polyreactivity”.

For “QVQLVESGGGLVQAGGSLRLSCAASGITFRYYAMGWYRQAPGKERELVATISRGVRTNYADSVKGRFTISRDNAKNTVYLQMNSLKPEDTAVYYCNADYASARRYDYWGQGTQVTVSS”, which “polyreactivity (PSR sort gate)” value is on record?
The value was “high polyreactivity”.

For “QVQLVESGGGLVQAGGSLRLSCAASGITFSDYAMGWYRQAPGKERELVAGITSGGSTYYADSVKGRFTISRDNAKNTVYLQMNSLKPEDTAVYYCAAVRRWKYDWGQGTQVTVSS”, which “polyreactivity (PSR sort gate)” value is on record?
Its value is “high polyreactivity”.

Which “polyreactivity (PSR sort gate)” value does the source give for “QVQLVESGGGLVQAGGSLRLSCAASGITFSGHAMGWYRQAPGKERELVAAITGSGGGTYYADSVMGRFTISRDNAKNTVYLQMNCLKPEDTAVYYCNADNYYYSGFDYWGQGTQVTVSS” here?
Its value is “low polyreactivity”.

Which “polyreactivity (PSR sort gate)” value does the source give for “QVQLVESGGGLVQAGGSLRLSCAASGITFSGNAMGWYRPATGKERELVAGISRRGGSTYYADSVKGRFTISRDNAKNTVYLEMNSLKPEDTAVYYCARQFRRYYYAGYRYDYWGQGTQVTVSS” here?
Its value is “high polyreactivity”.

With “QVQLVESGGGLVQAGGSLRLSCAASGITFSGNAMGWYRQAPGKERELVAAISGRGGSTYYADSVKGRFTISRDNAKNTVYLQMNSLKPEDTAVYYCAARVPSPYVATYYYWGQGTQVTVSS” as the sequence, how does the “polyreactivity (PSR sort gate)” value read?
Its value is “high polyreactivity”.

Which “polyreactivity (PSR sort gate)” value does the source give for “QVQLVESGGGLVQAGGSLRLSCAASGITFSHNAMGWYRQAPGKERELVAAITRSGGSTYYADSVKGRFTISRDNAKNTVYLQMNSLKPEDTAVYYCATEDYYRQYGYWSLSRMDHWGQGTQVTVSS” here?
The value was “low polyreactivity”.

Which “polyreactivity (PSR sort gate)” value does the source give for “QVQLVESGGGLVQAGGSLRLSCAASGITFSLYAMGWYRQAPGKERELVAAITRSGGSTYYADSVKGRFTISRDNAKNTVYLQMNSLKPEDTAVYYCAALRPGVRRYYYWGHGTQVTVSS” here?
The value was “high polyreactivity”.

Which “polyreactivity (PSR sort gate)” value does the source give for “QVQLVESGGGLVQAGGSLRLSCAASGITFSRNAMGWYRQAPGKERELVAVISTRGGRTYYADSVKGRFTISRDNAKNTFYLQMNSLKPEDTAVYYCAASPDPYWRRMDYWGQGTQVTVSS” here?
The value was “high polyreactivity”.

With “QVQLVESGGGLVQAGGSLRLSCAASGITFSRNGMGWYRQAPGKERELVAAISTSGDSTDYADSVKGRFTISRDNAKNTVYLQMNSLKPEDTAVYYCAASYAFLYYGYDSWGQGTQVTVSS” as the sequence, how does the “polyreactivity (PSR sort gate)” value read?
The value was “low polyreactivity”.

Which “polyreactivity (PSR sort gate)” value does the source give for “QVQLVESGGGLVQAGGSLRLSCAASGITFSRNTMGWYRQGPGKERELVAAITYSGGRTYYADSVKGRFTISRDNAKNTVYLQMNSLKPEDTAVYYCARRGTGKYPYYQHYYWGQGTQVTVSS” here?
Its value is “high polyreactivity”.

With “QVQLVESGGGLVQAGGSLRLSCAASGITFSRNVMGWYRQAPGKERELVAAISRSGGRTYYADSVKGRLTISRDNAKNTVYLQMNSLKPEDTAVYYCNRDIGGTSVLDDYWGQGTQVTVSS” as the sequence, how does the “polyreactivity (PSR sort gate)” value read?
The value was “low polyreactivity”.

For “QVQLVESGGGLVQAGGSLRLSCAASGITFSRYAMGWYRQAPGKERELVAAITWDGGRTYYADSVKGRFTISRDNAKNTVYLQMNSLKPEDTAVYYCAASRYSPVRWVWLYYWGQGTQVTVSS”, which “polyreactivity (PSR sort gate)” value is on record?
The value was “high polyreactivity”.

Which “polyreactivity (PSR sort gate)” value does the source give for “QVQLVESGGGLVQAGGSLRLSCAASGITFSYNAMGWDRQAPGKERELVAAISSNSDSTYYADSVKGRFTISRDNAKNTVYLQMNSLKPEDTAVYYCAADTPDAPDYSGFYYWGQGTQVTVSS” here?
Its value is “low polyreactivity”.

For “QVQLVESGGGLVQAGGSLRLSCAASGITFSYNAMGWYRQAPGKEREFVAAISSNSDSTYYADSVKGRFTISRDTAKITVYLQMNSLKPEDTAVYYCAADTPDAPDYSGFYYWGQGTQVTVSS”, which “polyreactivity (PSR sort gate)” value is on record?
The value was “low polyreactivity”.

Which “polyreactivity (PSR sort gate)” value does the source give for “QVQLVESGGGLVQAGGSLRLSCAASGITFSYNAMGWYRQAPGKERELVAAIRVGDGSTYYADSVKGRFTISRDNAKNTVYLQMNSLKPEDTAVNYCNARYLRLRYPYTDEYNYWGQGTQVTVSS” here?
Its value is “low polyreactivity”.

With “QVQLVESGGGLVQAGGSLRLSCAASGITFSYYAMGWYRPAPGKERELVAAISRTGTSTYYADSVKGRFTISRDNAKNTVYFQMNSLKPEDTAVYYCAAVPRHPYHDKYDYWGQGTQVTVSS” as the sequence, how does the “polyreactivity (PSR sort gate)” value read?
The value was “high polyreactivity”.

For “QVQLVESGGGLVQAGGSLRLSCAASGITFSYYAMGWYRQAPGKEREFVAAISWSGGSTYYADSVKGRFTISRDNAKNTVYLQMNSLKPEDTAVYYCAADRYPYGLDYWGQGTQVTVSS”, which “polyreactivity (PSR sort gate)” value is on record?
Its value is “high polyreactivity”.

With “QVQLVESGGGLVQAGGSLRLSCAASGITFSYYAMGWYRQAPGKERELVAAISRTGTSTYYADSVKGRFTISRDNAKNTVYLQMKSLKPEDTAVYDCAAVPRHPYHDKYDYWGQGTQVTVSS” as the sequence, how does the “polyreactivity (PSR sort gate)” value read?
Its value is “high polyreactivity”.

With “QVQLVESGGGLVQAGGSLRLSCAASGITFTDYAMGWYRQAPGKERELVAAITGSGTSTYYADSVKGRFTISRDNAKNTVYLQMNSLKPEDTAVYYCAARTRGTAYNYWGQGTQVTVSS” as the sequence, how does the “polyreactivity (PSR sort gate)” value read?
The value was “high polyreactivity”.

For “QVQLVESGGGLVQAGGSLRLSCAASGITFTDYDMGWYRQAPGKERELVAAISNGGGSTYYADSVKGRFTISRDNAKNTVYLQMYSMKPEDTAVYYCAAERVPSWWVEWGVAQWDDYWGQGTQVTVSS”, which “polyreactivity (PSR sort gate)” value is on record?
The value was “low polyreactivity”.

For “QVQLVESGGGLVQAGGSLRLSCAASGITFTGFAMGWYRQAPGKERELVAAITWSSGSTYYADSVKGRFTISRDNAKNTVYLQMNSLKPEDTAVYYCNAGYWYDGPDYIPEYDYWGQGTQVTVSS”, which “polyreactivity (PSR sort gate)” value is on record?
The value was “low polyreactivity”.

For “QVQLVESGGGLVQAGGSLRLSCAASGITFTGYAMGWYRQAPGKERELVAAITWSSGSTYYADSVKGRFTISRDNAKNTVYLQMNSLKPEDTAVYYCNTDYGRYLYYRYGYWGQGTQVTVSS”, which “polyreactivity (PSR sort gate)” value is on record?
The value was “low polyreactivity”.

For “QVQLVESGGGLVQAGGSLRLSCAASGITFTKYVMRWYRQAPGKERELVATIRWGASSTHYADSVKGRFTISRDNAKNTVYLQMNSLKPEDTAVYYCNADGWYGAVYWWFYGFDYWGQGTQVTVSS”, which “polyreactivity (PSR sort gate)” value is on record?
Its value is “low polyreactivity”.

For “QVQLVESGGGLVQAGGSLRLSCAASGITFTQYAMGWYRQAPGKERELVAAISKRGGRTYYADSVKGRFTISRDNAKNTVYLQMNSLKPEDTAVYYCATVPYGEVDYWGQGTQVTVSS”, which “polyreactivity (PSR sort gate)” value is on record?
Its value is “high polyreactivity”.

With “QVQLVESGGGLVQAGGSLRLSCAASGITFTRNAMGWYRQAPGKERELVAVITSSGRTKYADSVKGRFTISRDNAKNTVYLQMNSLKPEDTAVYYCAKVLFGTVPYGYWGHGTQVTVSS” as the sequence, how does the “polyreactivity (PSR sort gate)” value read?
Its value is “high polyreactivity”.

For “QVQLVESGGGLVQAGGSLRLSCAASGITFTSYAMGWYRQAPGKERELVAAISWSGDRTYYADSVKGRFTISRDNAKNTVYLQMNSLKPEDTAVYYCAAEWVSPWTGPGFDYWGQGTQVTVSS”, which “polyreactivity (PSR sort gate)” value is on record?
The value was “high polyreactivity”.

With “QVQLVESGGGLVQAGGSLRLSCAASGITFTTYAMGWYRQAPGKERELVATINRGSRTNYADSVKGRFTISRDNAKNTVYLQMNSLKAEDTAVYYCAAHYTTFIPSPDGDYLGQGTQVTVSS” as the sequence, how does the “polyreactivity (PSR sort gate)” value read?
Its value is “low polyreactivity”.

With “QVQLVESGGGLVQAGGSLRLSCAASGITFTYYAMGWYRQAPGKVRELVAGISSGTRTYYADSVKGRFTISRDNAKNTVYLQMNSLKPEDTAVYYCAARTGSRYSRGDYWGHGTQVTVSS” as the sequence, how does the “polyreactivity (PSR sort gate)” value read?
Its value is “high polyreactivity”.

With “QVQLVESGGGLVQAGGSLRLSCAASGITFVDYDMGWYRQAPGKERELVAAITTGSSTYYADSVKGRFTISRDNAKNTVYLQMNSLKPEDTAVYYCARVFEYDYYQQWSYGYWGQGTQVTVSS” as the sequence, how does the “polyreactivity (PSR sort gate)” value read?
Its value is “low polyreactivity”.

Which “polyreactivity (PSR sort gate)” value does the source give for “QVQLVESGGGLVQAGGSLRLSCAASGITFVFYAMGWYRQAPGKERELVAAISTGGSTNYADTVKGRFTISRDNAKNTVYFQMNSLKPEDTAVYYCAAQYFISISKYDYWGQGTQVTVSS” here?
The value was “low polyreactivity”.

For “QVQLVESGGGLVQAGGSLRLSCAASGITFVGYAMGWYRQAPGKERELVAVINTSSSTYYADSVKGRFTISRDNAKNTVYLQMNSLKPVDTAVYYCADYAYYRYFIPAVLYDYWGQGTQVTVSS”, which “polyreactivity (PSR sort gate)” value is on record?
Its value is “low polyreactivity”.

With “QVQLVESGGGLVQAGGSLRLSCAASGITFVHYAMGWSRQAPGKERELVAAITVGDGGTYYADSVKGRFTISRDNAKNTVYLQMNSLKPEDTAVYYCAAGFYSYSWYVKLAYGYWGQGIQVTVSS” as the sequence, how does the “polyreactivity (PSR sort gate)” value read?
The value was “low polyreactivity”.

Which “polyreactivity (PSR sort gate)” value does the source give for “QVQLVESGGGLVQAGGSLRLSCAASGITFVKNVMGWYRQAPGKERELVAAISTIGARTYYADSVKGRFTISRDNAKNTVYLQMNSLKPEDTAVYYCAAENYPRRPRYDYWGQGTQVTVSS” here?
Its value is “high polyreactivity”.

With “QVQLVESGGGLVQAGGSLRLSCAASGITFVRYAMGWYRQAPGKERELVAAINFSGGNTYYADSVKGRFTISRDNAKNTVYLQMNSLKPEDTAVYYCNAKRNYVRGRQGDWYIGYGYWGQGTQVTVSS” as the sequence, how does the “polyreactivity (PSR sort gate)” value read?
Its value is “high polyreactivity”.
